Where no end group is shown, it is not given here. The star is where a group is joined. C16 diacid = O=C(O)CCCCCCCCCCCCCCC(=O)*
T1: human GIP receptor (human, UniProt P48546 22-466)
T1 sequence (looked up): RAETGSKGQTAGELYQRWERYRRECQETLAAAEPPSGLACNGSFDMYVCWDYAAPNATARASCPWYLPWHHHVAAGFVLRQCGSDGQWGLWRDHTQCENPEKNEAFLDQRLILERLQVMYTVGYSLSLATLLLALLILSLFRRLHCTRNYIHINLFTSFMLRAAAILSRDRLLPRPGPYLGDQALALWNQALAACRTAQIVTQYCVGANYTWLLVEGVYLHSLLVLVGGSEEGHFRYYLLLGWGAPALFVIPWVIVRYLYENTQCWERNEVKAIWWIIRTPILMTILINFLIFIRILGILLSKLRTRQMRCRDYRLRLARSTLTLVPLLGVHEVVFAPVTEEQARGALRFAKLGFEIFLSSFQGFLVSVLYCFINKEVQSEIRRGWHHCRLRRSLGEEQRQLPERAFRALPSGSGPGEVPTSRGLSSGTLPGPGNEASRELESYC


The binders below were run against T1, human GIP receptor (assay: cell-based or functional assay).

Binder | cAMP agonism % Emax | cAMP antagonism | cAMP antagonism % inhib | cAMP antagonism pIC50
EGTFISDYSIAEDKIK(C16 diacid)QQDFVNWLLAQKPSSGAPPPS-OH (N-terminus assumed; SMILES CC[C@H](C)[C@H](NC(=O)[C@H](CO)NC(=O)[C@H](Cc1ccc(O)cc1)NC(=O)[C@H](CC(=O)O)NC(=O)[C@H](CO)NC(=O)[C@@H](NC(=O)[C@H](Cc1ccccc1)NC(=O)[C@@H](NC(=O)CNC(=O)[C@@H](N)CCC(=O)O)[C@@H](C)O)[C@@H](C)CC)C(=O)N[C@@H](C)C(=O)N[C@@H](CCC(=O)O)C(=O)N[C@@H](CC(=O)O)C(=O)N[C@@H](CCCCN)C(=O)N[C@H](C(=O)N[C@@H](CCCCNC(=O)CCCCCCCCCCCCCCC(=O)O)C(=O)N[C@@H](CCC(N)=O)C(=O)N[C@@H](CCC(N)=O)C(=O)N[C@@H](CC(=O)O)C(=O)N[C@@H](Cc1ccccc1)C(=O)N[C@H](C(=O)N[C@@H](CC(N)=O)C(=O)N[C@@H](Cc1c[nH]c2ccccc12)C(=O)N[C@@H](CC(C)C)C(=O)N[C@@H](CC(C)C)C(=O)N[C@@H](C)C(=O)N[C@@H](CCC(N)=O)C(=O)N[C@@H](CCCCN)C(=O)N1CCC[C@H]1C(=O)N[C@@H](CO)C(=O)N[C@@H](CO)C(=O)NCC(=O)N[C@@H](C)C(=O)N1CCC[C@H]1C(=O)N1CCC[C@H]1C(=O)N1CCC[C@H]1C(=O)N[C@@H](CO)C(=O)O)C(C)C)[C@@H](C)CC) [AT620] | 0% | 31.6 nM | 83% | 7.5
EGTFISDYSIAMDKIK(C16 diacid)QQDFVNWLEAQKPSSGAPPPS-OH (N-terminus assumed; SMILES CC[C@H](C)[C@H](NC(=O)[C@H](CO)NC(=O)[C@H](Cc1ccc(O)cc1)NC(=O)[C@H](CC(=O)O)NC(=O)[C@H](CO)NC(=O)[C@@H](NC(=O)[C@H](Cc1ccccc1)NC(=O)[C@@H](NC(=O)CNC(=O)[C@@H](N)CCC(=O)O)[C@@H](C)O)[C@@H](C)CC)C(=O)N[C@@H](C)C(=O)N[C@@H](CCSC)C(=O)N[C@@H](CC(=O)O)C(=O)N[C@@H](CCCCN)C(=O)N[C@H](C(=O)N[C@@H](CCCCNC(=O)CCCCCCCCCCCCCCC(=O)O)C(=O)N[C@@H](CCC(N)=O)C(=O)N[C@@H](CCC(N)=O)C(=O)N[C@@H](CC(=O)O)C(=O)N[C@@H](Cc1ccccc1)C(=O)N[C@H](C(=O)N[C@@H](CC(N)=O)C(=O)N[C@@H](Cc1c[nH]c2ccccc12)C(=O)N[C@@H](CC(C)C)C(=O)N[C@@H](CCC(=O)O)C(=O)N[C@@H](C)C(=O)N[C@@H](CCC(N)=O)C(=O)N[C@@H](CCCCN)C(=O)N1CCC[C@H]1C(=O)N[C@@H](CO)C(=O)N[C@@H](CO)C(=O)NCC(=O)N[C@@H](C)C(=O)N1CCC[C@H]1C(=O)N1CCC[C@H]1C(=O)N1CCC[C@H]1C(=O)N[C@@H](CO)C(=O)O)C(C)C)[C@@H](C)CC) [AT624] | 0% | 100 nM | ~90% | ~7
EGTFISDYSIAMDKIK(C16 diacid)QQDFVEWLLAQAPSSGAPPPS-OH (N-terminus assumed; SMILES CC[C@H](C)[C@H](NC(=O)[C@H](CO)NC(=O)[C@H](Cc1ccc(O)cc1)NC(=O)[C@H](CC(=O)O)NC(=O)[C@H](CO)NC(=O)[C@@H](NC(=O)[C@H](Cc1ccccc1)NC(=O)[C@@H](NC(=O)CNC(=O)[C@@H](N)CCC(=O)O)[C@@H](C)O)[C@@H](C)CC)C(=O)N[C@@H](C)C(=O)N[C@@H](CCSC)C(=O)N[C@@H](CC(=O)O)C(=O)N[C@@H](CCCCN)C(=O)N[C@H](C(=O)N[C@@H](CCCCNC(=O)CCCCCCCCCCCCCCC(=O)O)C(=O)N[C@@H](CCC(N)=O)C(=O)N[C@@H](CCC(N)=O)C(=O)N[C@@H](CC(=O)O)C(=O)N[C@@H](Cc1ccccc1)C(=O)N[C@H](C(=O)N[C@@H](CCC(=O)O)C(=O)N[C@@H](Cc1c[nH]c2ccccc12)C(=O)N[C@@H](CC(C)C)C(=O)N[C@@H](CC(C)C)C(=O)N[C@@H](C)C(=O)N[C@@H](CCC(N)=O)C(=O)N[C@@H](C)C(=O)N1CCC[C@H]1C(=O)N[C@@H](CO)C(=O)N[C@@H](CO)C(=O)NCC(=O)N[C@@H](C)C(=O)N1CCC[C@H]1C(=O)N1CCC[C@H]1C(=O)N1CCC[C@H]1C(=O)N[C@@H](CO)C(=O)O)C(C)C)[C@@H](C)CC) [AT623] | 0% | 3.16 nM | 98% | 8.5
EGTFISDYSIASDKIK(C16 diacid)QQDFVNWLLAQKPSSGAPPPS-OH (N-terminus assumed; SMILES CC[C@H](C)[C@H](NC(=O)[C@H](CO)NC(=O)[C@H](Cc1ccc(O)cc1)NC(=O)[C@H](CC(=O)O)NC(=O)[C@H](CO)NC(=O)[C@@H](NC(=O)[C@H](Cc1ccccc1)NC(=O)[C@@H](NC(=O)CNC(=O)[C@@H](N)CCC(=O)O)[C@@H](C)O)[C@@H](C)CC)C(=O)N[C@@H](C)C(=O)N[C@@H](CO)C(=O)N[C@@H](CC(=O)O)C(=O)N[C@@H](CCCCN)C(=O)N[C@H](C(=O)N[C@@H](CCCCNC(=O)CCCCCCCCCCCCCCC(=O)O)C(=O)N[C@@H](CCC(N)=O)C(=O)N[C@@H](CCC(N)=O)C(=O)N[C@@H](CC(=O)O)C(=O)N[C@@H](Cc1ccccc1)C(=O)N[C@H](C(=O)N[C@@H](CC(N)=O)C(=O)N[C@@H](Cc1c[nH]c2ccccc12)C(=O)N[C@@H](CC(C)C)C(=O)N[C@@H](CC(C)C)C(=O)N[C@@H](C)C(=O)N[C@@H](CCC(N)=O)C(=O)N[C@@H](CCCCN)C(=O)N1CCC[C@H]1C(=O)N[C@@H](CO)C(=O)N[C@@H](CO)C(=O)NCC(=O)N[C@@H](C)C(=O)N1CCC[C@H]1C(=O)N1CCC[C@H]1C(=O)N1CCC[C@H]1C(=O)N[C@@H](CO)C(=O)O)C(C)C)[C@@H](C)CC) [AT622] | 14% | 31.6 nM | 77% | 7.5
EGTFISDYSIAKDKIK(C16 diacid)QQDFVNWLLAQKPSSGAPPPS-OH (N-terminus assumed; SMILES CC[C@H](C)[C@H](NC(=O)[C@H](CO)NC(=O)[C@H](Cc1ccc(O)cc1)NC(=O)[C@H](CC(=O)O)NC(=O)[C@H](CO)NC(=O)[C@@H](NC(=O)[C@H](Cc1ccccc1)NC(=O)[C@@H](NC(=O)CNC(=O)[C@@H](N)CCC(=O)O)[C@@H](C)O)[C@@H](C)CC)C(=O)N[C@@H](C)C(=O)N[C@@H](CCCCN)C(=O)N[C@@H](CC(=O)O)C(=O)N[C@@H](CCCCN)C(=O)N[C@H](C(=O)N[C@@H](CCCCNC(=O)CCCCCCCCCCCCCCC(=O)O)C(=O)N[C@@H](CCC(N)=O)C(=O)N[C@@H](CCC(N)=O)C(=O)N[C@@H](CC(=O)O)C(=O)N[C@@H](Cc1ccccc1)C(=O)N[C@H](C(=O)N[C@@H](CC(N)=O)C(=O)N[C@@H](Cc1c[nH]c2ccccc12)C(=O)N[C@@H](CC(C)C)C(=O)N[C@@H](CC(C)C)C(=O)N[C@@H](C)C(=O)N[C@@H](CCC(N)=O)C(=O)N[C@@H](CCCCN)C(=O)N1CCC[C@H]1C(=O)N[C@@H](CO)C(=O)N[C@@H](CO)C(=O)NCC(=O)N[C@@H](C)C(=O)N1CCC[C@H]1C(=O)N1CCC[C@H]1C(=O)N1CCC[C@H]1C(=O)N[C@@H](CO)C(=O)O)C(C)C)[C@@H](C)CC) [AT621] | 0% | 1.36 nM | 93% | 8.9
EGTFISDYSIAMDKIK(C16 diacid)QQDFVNWLLEQKPSSGAPPPS-OH (N-terminus assumed; SMILES CC[C@H](C)[C@H](NC(=O)[C@H](CO)NC(=O)[C@H](Cc1ccc(O)cc1)NC(=O)[C@H](CC(=O)O)NC(=O)[C@H](CO)NC(=O)[C@@H](NC(=O)[C@H](Cc1ccccc1)NC(=O)[C@@H](NC(=O)CNC(=O)[C@@H](N)CCC(=O)O)[C@@H](C)O)[C@@H](C)CC)C(=O)N[C@@H](C)C(=O)N[C@@H](CCSC)C(=O)N[C@@H](CC(=O)O)C(=O)N[C@@H](CCCCN)C(=O)N[C@H](C(=O)N[C@@H](CCCCNC(=O)CCCCCCCCCCCCCCC(=O)O)C(=O)N[C@@H](CCC(N)=O)C(=O)N[C@@H](CCC(N)=O)C(=O)N[C@@H](CC(=O)O)C(=O)N[C@@H](Cc1ccccc1)C(=O)N[C@H](C(=O)N[C@@H](CC(N)=O)C(=O)N[C@@H](Cc1c[nH]c2ccccc12)C(=O)N[C@@H](CC(C)C)C(=O)N[C@@H](CC(C)C)C(=O)N[C@@H](CCC(=O)O)C(=O)N[C@@H](CCC(N)=O)C(=O)N[C@@H](CCCCN)C(=O)N1CCC[C@H]1C(=O)N[C@@H](CO)C(=O)N[C@@H](CO)C(=O)NCC(=O)N[C@@H](C)C(=O)N1CCC[C@H]1C(=O)N1CCC[C@H]1C(=O)N1CCC[C@H]1C(=O)N[C@@H](CO)C(=O)O)C(C)C)[C@@H](C)CC) [AT625] | 0% | 3.98 nM | 93% | 8.4

— patent US20220298218A1 (ANTAG THERAPEUTICS, published 2022)
